Data reported in patent publication US10618965 (dated 2020).

T1: human FcgRIIb (human)
T1 chain: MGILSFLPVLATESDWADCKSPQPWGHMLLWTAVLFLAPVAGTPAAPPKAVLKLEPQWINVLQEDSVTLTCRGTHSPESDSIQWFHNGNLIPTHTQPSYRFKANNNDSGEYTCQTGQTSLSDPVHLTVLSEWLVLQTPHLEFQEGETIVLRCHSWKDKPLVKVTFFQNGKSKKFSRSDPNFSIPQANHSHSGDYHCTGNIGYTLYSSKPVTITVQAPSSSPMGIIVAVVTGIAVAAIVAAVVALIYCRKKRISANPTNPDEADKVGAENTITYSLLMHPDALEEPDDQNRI

T2: human FcgRIIa(R) (human)
T2 chain: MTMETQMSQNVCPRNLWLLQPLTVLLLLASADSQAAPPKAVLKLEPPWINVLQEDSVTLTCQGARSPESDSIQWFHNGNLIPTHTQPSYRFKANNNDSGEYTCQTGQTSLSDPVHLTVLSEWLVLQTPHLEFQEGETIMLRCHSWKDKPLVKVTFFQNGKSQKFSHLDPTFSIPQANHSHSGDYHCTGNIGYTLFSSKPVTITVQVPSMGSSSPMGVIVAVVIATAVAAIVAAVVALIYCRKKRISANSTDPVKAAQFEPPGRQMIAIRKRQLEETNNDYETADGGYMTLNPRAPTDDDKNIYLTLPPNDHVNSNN

B1: IL6R-BP089 (antibody)
chain 1: QVQLQESGPGLVKPSETLSLTCAVSGHSISHDHAWSWVRQPPGEGLEWIGFISYSGITNYNPSLQGRVTISRDNSKNTLYLQMNSLRAEDTAVYYCARSLARTTAMDYWGEGTLVTVSSASTKGPSVFPLAPSSKSTSGGTAALGCLVKDYFPEPVTVSWNSGALTSGVHTFPAVLQSSGLYSLSSVVTVPSSSLGTQTYICNVNHKPSNTKVDKKVEPKSCDKTHTCPPCPAPEYLGGDSVFLFPPKPKDTLMISRTPEVTCVVVDVSHEDPEVKFNWYVDGVEVHNAKTKPREEQYNSTYRVVSVLTVLHQDWLNGKEYKCKVSNAALPKPIEKTISKAKGQPREPQVYTLPPSRDELTKNQVSLTCLVKGFYPSDIAVEWESNGQPENNYKTTPPVLDSDGSFFLYSKLTVDKSRWQQGNVFSCSVMHEALHNHYTQESLSLSP
chain 2: DIQMTQSPSSLSASVGDRVTITCRASQDISSYLNWYQQKPGKAPKLLIYYTSRLHSGVPSRFSGSGSGTDFTFTISSLQPEDIATYYCQQGNTLPYTFGQGTKVEIK
B2: IL6R-BP152 (antibody)
chain 1: QVQLQESGPGLVKPSETLSLTCAVSGHSISHDHAWSWVRQPPGEGLEWIGFISYSGITNYNPSLQGRVTISRDNSKNTLYLQMNSLRAEDTAVYYCARSLARTTAMDYWGEGTLVTVSSASTKGPSVFPLAPSSKSTSGGTAALGCLVKDYFPEPVTVSWNSGALTSGVHTFPAVLQSSGLYSLSSVVTVPSSSLGTQTYICNVNHKPSNTKVDKKVEPKSCDKTHTCPPCPAPDYLGDDSVFLFPPKPKDTLMISRTPEVTCVVVDVSHEDPEVKFNWYVDGVEVHNAKTKPREEQDNSTYRVVSVLTVLHQDWLNGKEYKCKVSNAALPKPIEKTISKAKGQPREPQVYTLPPSRDELTKNQVSLTCLVKGFYPSDIAVEWESNGQPENNYKTTPPVLDSDGSFFLYSKLTVDKSRWQQGNVFSCSVMHEALHNHYTQESLSLSP
chain 2: DIQMTQSPSSLSASVGDRVTITCRASQDISSYLNWYQQKPGKAPKLLIYYTSRLHSGVPSRFSGSGSGTDFTFTISSLQPEDIATYYCQQGNTLPYTFGQGTKVEIK
B3: IL6R-BP087 (antibody)
chain 1: QVQLQESGPGLVKPSETLSLTCAVSGHSISHDHAWSWVRQPPGEGLEWIGFISYSGITNYNPSLQGRVTISRDNSKNTLYLQMNSLRAEDTAVYYCARSLARTTAMDYWGEGTLVTVSSASTKGPSVFPLAPSSKSTSGGTAALGCLVKDYFPEPVTVSWNSGALTSGVHTFPAVLQSSGLYSLSSVVTVPSSSLGTQTYICNVNHKPSNTKVDKKVEPKSCDKTHTCPPCPAPEYLGGDSVFLFPPKPKDTLMISRTPEVTCVVVDVSHEDPEVKFNWYVDGVEVHNAKTKPREEQYNSTYRVVSVLTVLHQDWLNGKEYKCKVSNKALPKPIEKTISKAKGQPREPQVYTLPPSRDELTKNQVSLTCLVKGFYPSDIAVEWESNGQPENNYKTTPPVLDSDGSFFLYSKLTVDKSRWQQGNVFSCSVMHEALHNHYTQESLSLSP
chain 2: DIQMTQSPSSLSASVGDRVTITCRASQDISSYLNWYQQKPGKAPKLLIYYTSRLHSGVPSRFSGSGSGTDFTFTISSLQPEDIATYYCQQGNTLPYTFGQGTKVEIK
B4: IL6R-BP131 (antibody)
chain 1: QVQLQESGPGLVKPSETLSLTCAVSGHSISHDHAWSWVRQPPGEGLEWIGFISYSGITNYNPSLQGRVTISRDNSKNTLYLQMNSLRAEDTAVYYCARSLARTTAMDYWGEGTLVTVSSASTKGPSVFPLAPSSKSTSGGTAALGCLVKDYFPEPVTVSWNSGALTSGVHTFPAVLQSSGLYSLSSVVTVPSSSLGTQTYICNVNHKPSNTKVDKKVEPKSCDKTHTCPPCPAPDLLGDDSVFLFPPKPKDTLMISRTPEVTCVVVDVSHEDPEVKFNWYVDGVEVHNAKTKPREEQYNSTYRVVSVLTVLHQDWLNGKEYKCKVSNKALPKPIEKTISKAKGQPREPQVYTLPPSRDELTKNQVSLTCLVKGFYPSDIAVEWESNGQPENNYKTTPPVLDSDGSFFLYSKLTVDKSRWQQGNVFSCSVMHEALHNHYTQESLSLSP
chain 2: DIQMTQSPSSLSASVGDRVTITCRASQDISSYLNWYQQKPGKAPKLLIYYTSRLHSGVPSRFSGSGSGTDFTFTISSLQPEDIATYYCQQGNTLPYTFGQGTKVEIK
B5: IL6R-BP144 (antibody)
chain 1: QVQLQESGPGLVKPSETLSLTCAVSGHSISHDHAWSWVRQPPGEGLEWIGFISYSGITNYNPSLQGRVTISRDNSKNTLYLQMNSLRAEDTAVYYCARSLARTTAMDYWGEGTLVTVSSASTKGPSVFPLAPSSKSTSGGTAALGCLVKDYFPEPVTVSWNSGALTSGVHTFPAVLQSSGLYSLSSVVTVPSSSLGTQTYICNVNHKPSNTKVDKKVEPKSCDKTHTCPPCPAPELLGDDSVFLFPPKPKDTLMISRTPEVTCVVVDVSHEDPEVKFNWYVDGVEVHNAKTKPREEQYNSTYRVVSVLTVLHQDWLNGKEYKCKVSNAALPAPIEKTISKAKGQPREPQVYTLPPSRDELTKNQVSLTCLVKGFYPSDIAVEWESNGQPENNYKTTPPVLDSDGSFFLYSKLTVDKSRWQQGNVFSCSVMHEALHNHYTQESLSLSP
chain 2: DIQMTQSPSSLSASVGDRVTITCRASQDISSYLNWYQQKPGKAPKLLIYYTSRLHSGVPSRFSGSGSGTDFTFTISSLQPEDIATYYCQQGNTLPYTFGQGTKVEIK
B6: IL6R-BP178 (antibody)
chain 1: QVQLQESGPGLVKPSETLSLTCAVSGHSISHDHAWSWVRQPPGEGLEWIGFISYSGITNYNPSLQGRVTISRDNSKNTLYLQMNSLRAEDTAVYYCARSLARTTAMDYWGEGTLVTVSSASTKGPSVFPLAPSSKSTSGGTAALGCLVKDYFPEPVTVSWNSGALTSGVHTFPAVLQSSGLYSLSSVVTVPSSSLGTQTYICNVNHKPSNTKVDKKVEPKSCDKTHTCPPCPAPDLLGDDSVFLFPPKPKDTLMISRTPEVTCVVVDVSHEDGEVKFNWYVDGVEVHNAKTKPREEQYNSTYRVVSVLTVLHQDWLNGKEYKCKVSNKALPKPIEKTISKAKGQPREPQVYTLPPSRDELTKNQVSLTCLVKGFYPSDIAVEWESNGQPENNYKTTPPVLDSDGSFFLYSKLTVDKSRWQQGNVFSCSVMHEALHNHYTQESLSLSP
chain 2: DIQMTQSPSSLSASVGDRVTITCRASQDISSYLNWYQQKPGKAPKLLIYYTSRLHSGVPSRFSGSGSGTDFTFTISSLQPEDIATYYCQQGNTLPYTFGQGTKVEIK
B7: IL6R-BP149 (antibody)
chain 1: QVQLQESGPGLVKPSETLSLTCAVSGHSISHDHAWSWVRQPPGEGLEWIGFISYSGITNYNPSLQGRVTISRDNSKNTLYLQMNSLRAEDTAVYYCARSLARTTAMDYWGEGTLVTVSSASTKGPSVFPLAPSSKSTSGGTAALGCLVKDYFPEPVTVSWNSGALTSGVHTFPAVLQSSGLYSLSSVVTVPSSSLGTQTYICNVNHKPSNTKVDKKVEPKSCDKTHTCPPCPAPDYLGDDSVFLFPPKPKDTLMISRTPEVTCVVVDVSHEDPEVKFNWYVDGVEVHNAKTKPREEQDNSTYRVVSVLTVLHQDWLNGKEYKCKVSNAALPKPIEKTISKAKGQPREPQVYTLPPSRDELTKNQVSLTCLVKGFYPSDIAVEWESNGQPENNYKTTPPVLDSDGSFFLYSKLTVDKSRWQQGNVFSCSVMHEALHNHYTQESLSLSP
chain 2: DIQMTQSPSSLSASVGDRVTITCRASQDISSYLNWYQQKPGKAPKLLIYYTSRLHSGVPSRFSGSGSGTDFTFTISSLQPEDIATYYCQQGNTLPYTFGQGTKVEIK
B8: F1327 (antibody)
chain 1: QVQLQESGPGLVKPSETLSLTCAVSGHSISHDHAWSWVRQPPGEGLEWIGFISYSGITNYNPSLQGRVTISRDNSKNTLYLQMNSLRAEDTAVYYCARSLARTTAMDYWGEGTLVTVSSASTKGPSVFPLAPSSKSTSGGTAALGCLVKDYFPEPVTVSWNSGALTSGVHTFPAVLQSSGLYSLSSVVTVPSSSLGTQTYICNVNHKPSNTKVDKKVEPKSCDKTHTCPPCPAPEAAGGPSVFLFPPKPKDVLYISRTPEVTCVVVDVSHEDPEVKFNWYVDGVEVHNAKTKPREEQYASTYRVVSVLQPLHADWLNGKEYKCKVSNKALPAPIEKTISKAKGQPREPQVYTLPPSRDELTKNQVSLTCLVKGFYPSDIAVEWESNGQPENNYKTTPPVLDSDGSFFLYSKLTVDKSRWQQGNVFSCSVMHEALHYHVTQKSLSLSP
chain 2: not shown
B9: F938 (antibody)
chain 1: QVQLQESGPGLVKPSETLSLTCAVSGHSISHDHAWSWVRQPPGEGLEWIGFISYSGITNYNPSLQGRVTISRDNSKNTLYLQMNSLRAEDTAVYYCARSLARTTAMDYWGEGTLVTVSSASTKGPSVFPLAPSSKSTSGGTAALGCLVKDYFPEPVTVSWNSGALTSGVHTFPAVLQSSGLYSLSSVVTVPSSSLGTQTYICNVNHKPSNTKVDKKVEPKSCDKTHTCPPCPAPELKGGPKVFLFPPKPKDTLYISRTPEVTCVVVDVSHEDPEVKFNWYVDGVEVHNAKTKPREEQYNSTYRVVSVLTVLHQDWLNGKEYKCKVSNKALPAPIEKTISKAKGQPREPQVYTLPPSRDELTKNQVSLTCLVKGFYPSDIAVEWESNGQPENNYKTTPPVLDSDGSFFLYSKLTVDKSRWQQGNVFSCSVMHEALHYHVTQKSLSLSP
chain 2: not shown

Tests used:
human FcgRIIb = biological target: T1, human FcgRIIb; assay: SPR
human FcgRIIa(R) = biological target: T2, human FcgRIIa(R); assay: SPR
human FcgRIa = human FcgRIa (human); assay: SPR
[1] = biological target: human FcRn (with beta2-microglobulin) (human); assay: SPR, pH 7.0
Sequence of human FcRn (with beta2-microglobulin) (human) (chain, as listed by the source, chain 1 of 2): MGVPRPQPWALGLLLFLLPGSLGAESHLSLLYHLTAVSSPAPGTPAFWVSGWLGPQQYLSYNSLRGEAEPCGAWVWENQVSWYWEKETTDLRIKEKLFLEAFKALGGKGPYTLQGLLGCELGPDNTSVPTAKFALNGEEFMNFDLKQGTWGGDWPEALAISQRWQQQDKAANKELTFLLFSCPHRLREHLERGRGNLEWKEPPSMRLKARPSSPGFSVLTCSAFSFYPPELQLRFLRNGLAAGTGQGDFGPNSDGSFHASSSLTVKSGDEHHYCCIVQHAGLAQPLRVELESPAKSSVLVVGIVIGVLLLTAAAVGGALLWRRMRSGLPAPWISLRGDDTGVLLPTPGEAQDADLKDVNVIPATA
Sequence of human FcRn (with beta2-microglobulin) (human) (chain, as listed by the source, chain 2 of 2): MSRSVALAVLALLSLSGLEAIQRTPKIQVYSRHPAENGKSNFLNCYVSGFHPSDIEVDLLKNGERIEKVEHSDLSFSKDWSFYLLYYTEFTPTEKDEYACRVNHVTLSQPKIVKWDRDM

Sequence of human FcgRIa (human) (chain, as listed by the source): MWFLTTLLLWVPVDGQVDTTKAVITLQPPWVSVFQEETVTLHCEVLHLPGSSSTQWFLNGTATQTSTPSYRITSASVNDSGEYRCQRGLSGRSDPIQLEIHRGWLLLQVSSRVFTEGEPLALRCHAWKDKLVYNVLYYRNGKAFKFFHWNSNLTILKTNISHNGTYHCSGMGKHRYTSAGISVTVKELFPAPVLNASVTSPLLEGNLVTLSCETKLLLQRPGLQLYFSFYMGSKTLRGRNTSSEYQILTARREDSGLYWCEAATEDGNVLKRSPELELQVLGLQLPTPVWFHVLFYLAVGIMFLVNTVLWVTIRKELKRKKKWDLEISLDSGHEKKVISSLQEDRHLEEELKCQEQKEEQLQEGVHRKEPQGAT

Row | Binder | Kd (human FcgRIIb) [nM] | Kd (human FcgRIIa(R)) [nM] | Kd (human FcgRIa) [nM] | Kd [1] [nM]
1 | B1 | 390 | 6400 | 63 | –
2 | B2 | 41 | 810 | 73 | –
3 | B3 | 610 | 9700 | 30 | –
4 | B4 | 250 | 3100 | 120 | –
5 | B5 | 790 | 2900 | 3700 | –
6 | B6 | 51 | 930 | 43 | –
7 | B7 | 93 | 1400 | 120 | –
8 | B8 | – | – | – | 14
9 | B9 | – | – | – | 161
